Patent publication US20130309177A1

How the values were obtained:
[1] = target: somatostatin receptors on AR42J cells (rat); assay: apparent IC50; competition with ^111In-DTPA-octreotide on AR42J cells, 3 h at RT
[2] = target: gastrin-releasing peptide receptor on PC-3 cells (UniProt P30550); assay: competition with ^125I-BBN on PC-3 cells, repeat experiment (250 to 2 nM competitor)
Chain of gastrin-releasing peptide receptor on PC-3 cells (P30550 whole entry): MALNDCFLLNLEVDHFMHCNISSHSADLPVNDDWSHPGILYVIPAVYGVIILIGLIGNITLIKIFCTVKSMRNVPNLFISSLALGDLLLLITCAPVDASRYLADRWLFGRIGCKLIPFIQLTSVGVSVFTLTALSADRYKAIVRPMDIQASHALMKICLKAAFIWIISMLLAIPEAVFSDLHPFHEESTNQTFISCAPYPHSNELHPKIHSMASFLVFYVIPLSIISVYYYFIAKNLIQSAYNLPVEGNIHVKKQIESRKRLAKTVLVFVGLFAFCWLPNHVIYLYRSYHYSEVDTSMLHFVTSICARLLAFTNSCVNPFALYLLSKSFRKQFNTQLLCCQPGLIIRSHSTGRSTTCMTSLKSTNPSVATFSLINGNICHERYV

Chain of somatostatin receptors on AR42J cells (rat) (P30680 whole entry): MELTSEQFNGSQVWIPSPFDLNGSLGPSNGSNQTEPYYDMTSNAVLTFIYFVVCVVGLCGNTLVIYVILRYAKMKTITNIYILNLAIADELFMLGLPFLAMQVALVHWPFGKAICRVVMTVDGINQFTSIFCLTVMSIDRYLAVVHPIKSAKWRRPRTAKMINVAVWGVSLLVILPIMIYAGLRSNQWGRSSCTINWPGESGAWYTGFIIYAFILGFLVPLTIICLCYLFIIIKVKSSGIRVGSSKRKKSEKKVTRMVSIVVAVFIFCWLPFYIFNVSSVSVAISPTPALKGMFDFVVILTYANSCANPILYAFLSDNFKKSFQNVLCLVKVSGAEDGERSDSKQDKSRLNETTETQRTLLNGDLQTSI

Row | IC50 [1] | IC50 [2] | Substance
1 | 3.6 nM | – | ^19F-IMP466 (Al^19F complex of IMP 466, NOTA-D-Phe-Cys-Phe-D-Trp-Lys-Thr-Cys-Throl) (peptide)
2 | 13 nM | – | ^69Ga-IMP466 (gallium complex of IMP 466) (peptide)
3 | 6.3 nM | – | ^115In-DTPA-octreotide (peptide)
4 | – | 24.4 nM | commercially available BBN peptide
